16 molecules from patent US20200323973A1 (INSTITUTE FOR SYSTEMS BIOLOGY, published 2020) can be followed below.

Bridge positions count the residues as written; N and C are the ends. Ends that are not written are not given here. * marks the point of attachment. Biotin = O=C1N[C@H]2[C@H](CS[C@H]2CCCCC(=O)*)N1

Assay [1] concerns the target recombinant full-length MrkA protein with an N-terminal 6xHis-SUMO-tag (MyBiosource, MBS1248970) (Klebsiella pneumoniae) (UniProt P12267). The experiment in a line: sandwich ELISA 2, 25 nM MrkA; PCC immobilised. In general terms: ELISA stands for enzyme-linked immunosorbent assay.
Assay [2] shares this target. The experiment in a line: sandwich ELISA 1, [MrkA] N/A; reference compound, ratio to itself.
Assay [3] has the same target. The experiment in a line: sandwich ELISA 2, 25 nM MrkA; reference compound, ratio to itself.
Assay [4] shares this target. The experiment in a line: sandwich ELISA 3, 50 nM MrkA; reference compound, ratio to itself.
Assay [5] has the same target. The assay is described as follows: sandwich ELISA 5, 25 nM MrkA; reference compound, ratio to itself.
For assay [6] the target is unchanged. The experiment in a line: sandwich ELISA 6, 25 nM MrkA; reference compound, ratio to itself.
Assay [7] has the same target. The assay is described as follows: sandwich ELISA 4, 100 nM MrkA; reference compound, ratio to itself.
The target is the same in assay [8]. The experiment in a line: ELISA with the PCC immobilised, full-length recombinant MrkA (FIG. 3A).
Assay [9] shares this target. The experiment in a line: sandwich ELISA: biotinylated PCC on NeutrAvidin plate, His-SUMO-MrkA titrated, anti-His detection (FIG. 3A).
Assay [10] shares this target. The experiment in a line: sandwich ELISA 3, 50 nM MrkA; PCC immobilised.
Assay [11] has the same target. The assay is described as follows: sandwich ELISA 6, 25 nM MrkA; PCC immobilised.
Assay [12] shares this target. The experiment in a line: ELISA with the PCC immobilised, full-length recombinant MrkA.
For assay [13] the target is unchanged. The experiment in a line: sandwich ELISA 4, 100 nM MrkA; PCC immobilised.
Assay [14] addresses T1, MrkA on Klebsiella pneumoniae cells (assembled into type 3 fimbriae) (Klebsiella pneumoniae, UniProt P12267 23-202).
T1 construct: whole, on cells; One molecule is used for all three strains; The strain is named under assay; MrkA oligomerises in the fimbriae and the number of copies is not fixed; also called MrkA-expressing K. pneumoniae cells; wild type KPPR1 (ATCC 43816)
T1 sequence: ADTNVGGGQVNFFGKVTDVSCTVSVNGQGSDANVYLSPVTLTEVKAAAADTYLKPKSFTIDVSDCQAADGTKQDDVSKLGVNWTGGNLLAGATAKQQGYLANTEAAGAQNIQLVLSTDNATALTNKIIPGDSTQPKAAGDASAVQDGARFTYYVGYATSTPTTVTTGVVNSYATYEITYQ
The assay is described as follows: whole-cell ELISA on two strains of MrkA-expressing K. pneumoniae (FIG. 5C); biotinylated PCC, SAv-HRP.

The target of assay [15] is T1, MrkA on Klebsiella pneumoniae cells …. The assay is described as follows: whole-cell ELISA, biotinylated PCC and SAv-HRP; KPPR1 (FIG. 5B); also two MrkA-expressing strains at 5 µM (FIG. 5C).
Assay [16] shares this target. The experiment in a line: whole-cell ELISA on wild type KPPR1 (ATCC 43816) grown in G-CAA; biotinylated PCC, SAv-HRP.
Assay [17] has the same target. The assay is described as follows: flow cytometry on K. pneumoniae BAA 2146, Alexafluor 488 anti-DNP detection. Background: In flow cytometry, cells or beads pass a laser one at a time.
The next assay addresses T2, SynEp 1 (SEQ ID NO:38) (Klebsiella pneumoniae, also: one residue replaced by azidolysine, position not given here).
T2 peptide: {Biotin-peg5}-FFGKVTDVSCTVSV
The experiment in a line: sandwich ELISA: biotinylated SynEp immobilised, cy(LLFFF)-DNP titrated, anti-DNP detection; background biotin-PEG6 subtracted.

One may read the EC50 as the concentration needed to bring the measured effect to its halfway point.

For the molecule “biotinylated cy(LLFFA) (SEQ ID NO:11) (peptide)”, the Relative affinity (ratio of ELISA signal to cy(LLFFF)) in assay [1] is 0.04. On to “biotinylated cy(LLFFF) (SEQ ID NO:5) (peptide)”, for which the Relative affinity (ratio of ELISA signal to cy(LLFFF)) in assay [2], in assay [3], in [4], in assay [5], in [6] and in [7] was 1 each time. Also, the EC50 is 230 nM in assay [8] and 50 nM in assay [9]. In the case of cy(AAFFF) (SEQ ID NO:14) (peptide), the Relative affinity (ratio of ELISA signal to cy(LLFFF)) in assay [10] came out at 0.15. Turning to cy(ALFFF) (SEQ ID NO:7) (peptide), the Relative affinity (ratio of ELISA signal to cy(LLFFF)) in assay [1] is 0.53. In the case of cy(DLFFF) (SEQ ID NO:12) (peptide), the Relative affinity (ratio of ELISA signal to cy(LLFFF)) in assay [11] is 0.21. As for cy(GVHRL) (SEQ ID NO:57) (peptide), the affinity (likely) in assay [12] was determined as 1 µM.

On to cy(HLFFF) (SEQ ID NO:13) (peptide), for which, in assay [11], the Relative affinity (ratio of ELISA signal to cy(LLFFF)) worked out at 0.81. Regarding cy(LAFFF) (SEQ ID NO:8) (peptide), the Relative affinity (ratio of ELISA signal to cy(LLFFF)) in assay [1] is 0.26. As to cy(LLAFF) (SEQ ID NO:9) (peptide), the Relative affinity (ratio of ELISA signal to cy(LLFFF)) in assay [1] worked out at 0.59. For the molecule cy(LLFAF) (SEQ ID NO:10) (peptide), the Relative affinity (ratio of ELISA signal to cy(LLFFF)) in assay [1] was 0.1.

As to cy(TTFFF) (SEQ ID NO:35) (peptide), the Relative affinity (ratio of ELISA signal to cy(LLFFF)) in assay [13] was 0.04. In addition, the affinity (likely) in assay [12] was 1 µM. In the case of cy(YRHLG) (SEQ ID NO:56) (peptide), in [12], the affinity (likely) stood at 1 µM.

B1: biotinylated dummy ligand cy(HNGPT) (SEQ ID NO:18) (peptide)
peptide: HNGPT
modifications: macrocycle: propargylglycine before and azidolysine after the printed residues, joined by a triazole (cy); N-terminal biotin-peg5 tag
B1: the binding result in assay [14] is “no binding”.

B2: biotinylated cy(LLFFF) (SEQ ID NO:5) (peptide)
peptide: LLFFF-azidolysine
modifications: triazole N-C; not fully specified (N-terminus); also: biotin-PEG tag by assay: Bio-Peg10-peg10, Bio-peg10 or Bio-peg5
notes: The biotin-PEG tags differ between assays; They are non-peptide, so one molecule is used and the tag is named under assay; also called cy(X-LLFFF-Z)
As for B2, in assay [15], the binding result is reported as “binds”.

B3: biotinylated cy(LLFFA) (SEQ ID NO:11) (peptide)
peptide: LLFFA-propargylglycine
modifications: triazole N-C; not fully specified (N-terminus); printed as cy(Z-LLFFA-X); also: biotin-PEG tag: Bio-peg10 or biotin-peg5 (whole-cell ELISA)
notes: also called Compound Number 6; cy(Z-LLFFA-X)
As to B3, the binding result in assay [16] is given as “no binding (tested: 5 µM down to 5 nM)”.

B4: cy(LLFFF)-DNP (SEQ ID NO:5) (peptide)
peptide: LLFFF-azidolysine
modifications: triazole N-C; not fully specified (N-terminus); printed as cy(LLFFF)-DNP; also: linker peg5 or peg5-peg5 by assay
notes: also called DNP-conjugated cy(LLFFF); lead AR-PCC
As for B4, the results for the binding result (in [17]; in the assay with SynEp 1 (SEQ ID NO:38)) were “binds” and “no binding (tested: 500 nM)”, respectively.
